We go through two molecules from paper PMC8219681, “Inhibition of MRN activity by a telomere protein motif” (Nature Communications, 2021).

For series [1], the target named is T1, Rif2-min (Saccharomyces cerevisiae, UniProt Q06208 1-395, F8E;P10N).
T1 sequence: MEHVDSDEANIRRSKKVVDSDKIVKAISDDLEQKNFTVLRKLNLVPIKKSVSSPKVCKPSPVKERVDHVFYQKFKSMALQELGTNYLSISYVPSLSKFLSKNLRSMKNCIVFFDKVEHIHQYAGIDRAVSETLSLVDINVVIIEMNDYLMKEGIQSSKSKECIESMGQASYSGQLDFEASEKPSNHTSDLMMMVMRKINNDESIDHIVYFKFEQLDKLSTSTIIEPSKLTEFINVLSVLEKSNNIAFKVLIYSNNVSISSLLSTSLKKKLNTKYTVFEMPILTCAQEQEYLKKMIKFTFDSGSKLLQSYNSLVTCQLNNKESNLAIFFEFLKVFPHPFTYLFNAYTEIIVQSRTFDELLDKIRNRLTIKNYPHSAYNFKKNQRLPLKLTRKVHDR
In words: EMSA; 5 mM Mg2+, 1 mM Mn2+, 1 mM ATP; 25 mM Tris-acetate pH 7.5, 1 mM DTT, 5 mM Mg acetate, 1 mM Mn acetate, 0.25 mg/ml BSA, 1 mM PEP, 1 mM ATP, 80 U/ml pyruvate kinase, 1 nM DNA, 30 C 30 min; 6% PAGE in TAE. The note with it: protein: recombinant; tags: C-terminal His (N-terminal MBP cleaved with PreScission); label: 32P; blunt.

For series [2], the target named is T2, Rif2 (Saccharomyces cerevisiae, UniProt Q06208 1-395).
T2 sequence: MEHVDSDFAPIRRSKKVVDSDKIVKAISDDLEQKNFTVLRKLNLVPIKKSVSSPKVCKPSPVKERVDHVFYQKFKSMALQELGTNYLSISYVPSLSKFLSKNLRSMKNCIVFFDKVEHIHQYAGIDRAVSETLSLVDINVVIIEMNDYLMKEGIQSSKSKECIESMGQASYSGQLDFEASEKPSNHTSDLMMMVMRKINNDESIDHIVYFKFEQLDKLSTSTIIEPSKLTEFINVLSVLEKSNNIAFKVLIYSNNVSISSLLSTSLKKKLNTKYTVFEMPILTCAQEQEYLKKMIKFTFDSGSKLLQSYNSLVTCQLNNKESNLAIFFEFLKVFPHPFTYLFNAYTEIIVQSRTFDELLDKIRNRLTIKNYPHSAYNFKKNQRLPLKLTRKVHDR
The description is as above. The settings on record: protein: recombinant; tags: C-terminal His (N-terminal MBP cleaved with PreScission); label: 32P; blunt.

Series [3] deals with T3, MBP-Rif2-min (S. cerevisiae Rif2 F8E P10N), Q06208.
T3 chain: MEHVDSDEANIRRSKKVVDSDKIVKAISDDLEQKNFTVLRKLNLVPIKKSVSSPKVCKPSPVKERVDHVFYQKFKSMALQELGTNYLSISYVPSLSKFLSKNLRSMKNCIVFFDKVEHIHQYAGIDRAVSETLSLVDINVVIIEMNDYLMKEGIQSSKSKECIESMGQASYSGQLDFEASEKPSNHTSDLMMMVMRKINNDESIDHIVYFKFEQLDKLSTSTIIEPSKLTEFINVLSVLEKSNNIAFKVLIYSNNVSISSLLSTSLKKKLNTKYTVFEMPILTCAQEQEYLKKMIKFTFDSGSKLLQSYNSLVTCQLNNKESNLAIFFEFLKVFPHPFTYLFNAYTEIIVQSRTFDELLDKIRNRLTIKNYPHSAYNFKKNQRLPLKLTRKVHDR
In words: pull-down (amylose-immobilized MBP-Rif2-min bait, Western blot with anti-Rad50 antibody, quantified). The note with it: chain shown with the change; three independent blots; mean with SEM; parent: est. 100; read off a plot.

B1: PC1253C/PC1253B 50 bp dsDNA (dsDNA)
DNA 1: AACGTCATAGACGATTACATTGCTAGGACATCTTTGCCCACGTTGACCCA
DNA 2: TGGGTCAACGTGGGCAAAGATGTCCTAGCAATGTAATCGTCTATGACGTT
modifications: 3'-terminal biotin (stated for the nuclease substrate; strand(s) ambiguous; streptavidin not mentioned for EMSA)
In the case of B1, the binding result in series [1] and in series [2] was “binds” each time.

B2: m3; m1 Rad50:K81I; Rif2:F8E; Rif2:P10N (protein)
chain: MSAIYKLSIQGIRSFDSNDRETIEFGKPLTLIVGMNGSGKTTIIECLKYATTGDLPPNSKGGVFIHDPKITGEKDIRAQVILAFTSANGLNMIVTRNIQLLMKKTTTTFKTLEGQLVAINNSGDRSTLSTRSLELDAQVPLYLGVPKAILEYVIFCHQEDSLWPLSEPSNLKKKFDEIFQAMKFTKALDNLKSIKKDMSVDIKLLKQSVEHLKLDKDRSKAMKLNIHQLQTKIDQYNEEVSEIESQLNEITEKSDKLFKSNQDFQKILSKVENLKNTKLSISDQVKRLSNSIDILDLSKPDLQNLLANFSKVLMDKNNQLRDLETDISSLKDRQSSLQSLSNSLIRRQGELEAGKETYEKNRNHLSSLKEAFQHKFQGLSNIENSDMAQVNHEMSQFKAFISQDLTDTIDQFAKDIQLKETNLSDLIKSITVDSQNLEYNKKDRSKLIHDSEELAEKLKSFKSLSTQDSLNHELENLKTYKEKLQSWESENIIPKLNQKIEEKNNEMIILENQIEKFQDRIMKTNQQADLYAKLGLIKKSINTKLDELQKITEKLQNDSRIRQVFPLTQEFQRADLEMDFQKLFINMQKNIAINNKKMHELDRRYTNALYNLNTIEKDLQDNQKSKEKVIQLLSENLPEDCTIDEYNDVLEETELSYKTALENLKMHQTTLEFNRKALEIAERDSCCYLCSRKFENESFKSKLLQELKTKTDANFEKTLKDTVQNEKEYLHSLRLLEKHIITLNSINEKIDNSQKCLEKAKEETKTSKSKLDELEVDSTKLKDEKELAESEIRPLIEKFTYLEKELKDLENSSKTISEELSIYNTSEDGIQTVDELRDQQRKMNDSLRELRKTISDLQMEKDEKVRENSRMINLIKEKELTVSEIESSLTQKQNIDDSIRSKRENINDIDSRVKELEARIISLKNKKDEAQSVLDKVKNERDIQVRNKQKTVADINRLIDRFQTIYNEVVDFEAKGFDELQTTIKELELNKAQMLELKEQLDLKSNEVNEEKRKLADSNNEEKNLKQNLELIELKSQLQHIESEISRLDVQNAEAERDKYQEESLRLRTRFEKLSSENAGKLGEMKQLQNQIDSLTHQLRTDYKDIEKNYHKEWVELQTRSFVTDDIDVYSKALDSAIMKYHGLKMQDINRIIDELWKRTYSGTDIDTIKIRSDEVSSTVKGKSYNYRVVMYKQDVELDMRGRCSAGQKVLASIIIRLALSETFGANCGVIALDEPTTNLDEENIESLAKSLHNIINMRRHQKNFQLIVITHDEKFLGHMNAAAFTDHFFKVKRDDRQKSQIEWVDINRVTY
On to B2, for which the percent of parent (Relative value) in series [3] was 14.
